Experimental data taken from patent US20240279321A1 (THERINI BIO, published 2024).
Residue numbers refer to the chain shown, from its start. Blank lines part the entries; values can stand above or below the binder they belong to. Where no end group is shown, it is not given here. The star is where a group is joined. Biotin = O=C1N[C@H]2[C@H](CS[C@H]2CCCCC(=O)*)N1

Legend:
[1] = target: T1, Human fibrin γ377-395 (Human P2 peptide) (human); experiment: BLI (ForteBio Octet): N-term biotinylated fibrin P2G peptide on SA tip, IgG in solution 100 nM (avid)
T1 construct: In the crystal models, residues 410-421 of chain A are ordered; also called fibrin P2 peptide; fibrin P2 gamma peptide
T1 peptide: Biotin-YSMKKTTMKIIPFNRLTIG

[2] = target: T1, Human fibrin γ377-395 (Human P2 peptide); experiment: BLI (Octet): N-term biotinylated P2G peptide on SA sensor, 100nM Fab in solution
[3] = target: T1, Human fibrin γ377-395 (Human P2 peptide); experiment: BLI (ForteBio Octet): N-term biotinylated fibrin P2G peptide on SA tip, IgG in solution 100 nM (avid) [Cont.]
[4] = target: T1, Human fibrin γ377-395 (Human P2 peptide); experiment: BLI (ForteBio Octet): N-term biotinylated fibrin P2G peptide on SA tip, Fab in solution 100 nM (monovalent)
[5] = target: T1, Human fibrin γ377-395 (Human P2 peptide); experiment: as above
[6] = target: T1, Human fibrin γ377-395 (Human P2 peptide); experiment: BLI (ForteBio Octet): N-term biotinylated fibrin P2G peptide on SA tip, Fab in solution 100 nM (monovalent) [Cont.]
[7] = target: T1, Human fibrin γ377-395 (Human P2 peptide); experiment: ELISA (N-P2 ELISA), RFU readout
[8] = target: T1, Human fibrin γ377-395 (Human P2 peptide); experiment: ELISA (N-P2 ELISA), RFU readout; C is the duplicate of clone 61278
[9] = target: T1, Human fibrin γ377-395 (Human P2 peptide); experiment: BLI (Octet RED384), Fab on P2 peptide; on-rate phase 0-300 s, off-rate phase 300-600 s
[10] = target: T1, Human fibrin γ377-395 (Human P2 peptide); experiment: BLI (Octet): N-term biotinylated P2G peptide on SA sensor, 100nM Fab in solution; the same panel stands twice in the middle row
Rat P2 peptide [11] = target: T2, Rat P2 peptide (rat); experiment: ELISA of ADI-60143 Fab on NP2 peptide (rat), RFU readout; drawn table, column Rat
T2 construct: also called Mouse/Rat P2 peptide
T2 peptide: YSMKETTMKIIPFNRLSIG

[12] = target: T1, Human fibrin γ377-395 (Human P2 peptide); experiment: ELISA of ADI-60143 Fab on NP2 peptide (human), RFU readout; drawn table, column Human
NP2 (Rabbit) [13] = target: T3, NP2 (Rabbit) (not fully specified (N-terminus)); experiment: ELISA of ADI-60143 Fab on NP2 peptide (rabbit), RFU readout; drawn table, column Rabbit
T3 construct: 'N-P2' elsewhere in the drawings stands for the N-term biotinylated P2 peptide; also called Rabbit P2 peptide; NP2 Fab (Rabbit) in the legend box of panel A
T3 peptide: YSMKKTTMKIIPLNRLSIG

[14] = target: T1, Human fibrin γ377-395 (Human P2 peptide); experiment: BLI (ForteBio Octet): N-term biotinylated fibrin P2G peptide on SA tip, IgG in solution 100 nM (avid)
Rat P2 peptide [15] = target: T2, Rat P2 peptide; experiment: ELISA of ADI-60143 IgG on NP2 peptide (rat), RFU readout; drawn table, column Rat
[16] = target: T4, Human P2 peptide extended (human); experiment: ELISA of ADI-60143 IgG on Ext NP2 peptide (human), RFU readout; drawn table, column Human
T4 construct: also called human extended P2 peptide
T4 peptide: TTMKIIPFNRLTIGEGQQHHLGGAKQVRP

Rat P2 peptide extended = target: T5, Rat P2 peptide extended (rat); experiment: ELISA of ADI-60143 IgG on Ext NP2 peptide (rat), RFU readout; drawn table, column Rat; the curve has no upper plateau at 500 nM
T5 construct: also called rat extended P2 peptide
T5 peptide: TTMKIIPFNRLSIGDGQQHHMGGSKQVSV

Ext NP2 (Rabbit) = target: T6, Ext NP2 (Rabbit); experiment: ELISA of ADI-60143 IgG on Ext NP2 peptide (rabbit), RFU readout; drawn table, column Rabbit
T6 construct: also called Rabbit P2 peptide extended
T6 peptide: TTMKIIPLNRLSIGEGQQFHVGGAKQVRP

NP2 (Rabbit) [17] = target: T3, NP2 (Rabbit); experiment: ELISA of ADI-60143 IgG on NP2 peptide (rabbit), RFU readout; drawn table, column Rabbit
[18] = target: T1, Human fibrin γ377-395 (Human P2 peptide); experiment: ELISA of ADI-60143 IgG on NP2 peptide (human), RFU readout; drawn table, column Human

binding result [1]: binds
B1: 60140 (IgG) (antibody, V domains shown)
VH: QVQLVQSGAEVKKPGASVKVSCKASGYTFTSVWIHWVRQAPGQGLEWIGLIDPSDSYTNYNQKFRGRATLTVDTSTSTAYMELSSLRSEDTAVYYCASSRPTGGWGQGTTVTVSS
VL: DIVMTQSPLSLPVTPGEPASISCRSSKSLLHSSGITYLSWYLQKPGQSPQLLIYQMSNLASGVPDRFSGSGSGTDFTLKISRVEAEDVGVYYCAQNLELPLTFGGGTKVEIKR

Kd [2]: 1300 nM
B2: 56666 (parent) (Fab) (Fab, V domains shown)
VH: B1 VH with V32Y, I48M, A68V, L70M, R100D
VL: B1 VL
notes: also called ADI-56666; clone 56666 Fab

binding result [3]: binds
B3: 61273 (IgG) (antibody, V domains shown)
VH: B1 VH with V32T, I48M, A68V, L70M, R100K
VL: B1 VL with L38I
notes: also called ADI-61273; clone 61273 IgG

Kd [2]: 264 nM
B4: 56657 (parent) (Fab) (Fab, V domains shown)
VH: B1 VH with V32Y, R100D
VL: B1 VL
notes: also called ADI-56657; clone 56657 Fab

binding result [4]: binds
B5: ADI-61283 (Fab) (Fab, V domains shown)
VH: B1 VH with V32A, I48M, A68V, L70M, R100D, T102Y
VL: B1 VL with L59K, N96S

binding result [5]: binds
B6: 60140 (Fab) (Fab, V domains shown)
VH: B1 VH
VL: B1 VL

binding result [6]: binds
B7: 61255 (Fab) (Fab, V domains shown)
VH: B1 VH with V32Y, R100D, P101A
VL: B1 VL with I35H, S48P, N96A
notes: also called clone 61255 Fab

EC50 [7]: 0.13 nM
EC50 [8]: 0.11 nM
B8: antibody clone 61278 (ADI-61278 IgG) (antibody, V domains shown)
VH: B1 VH with V32Y, I48M, A68V, L70M, R100D, P101A
VL: B1 VL with N96A

Kd [9]: 104 nM
Kd [10]: 38 nM
B9: Fab of antibody clone 61278 (ADI-61278 Fab) (Fab, V domains shown, not shown: a dimerising Fc or GST)
VH: B1 VH with V32Y, I48M, A68V, L70M, R100D, P101A
VL: B1 VL with N96A
notes: The crystal model holds chain H residues 1-126 and 133-214 and chain L residues 1-213; also called Fab ADI61278

binding result [5]: binds
B10: 61275 (Fab) (Fab, V domains shown)
VH: B1 VH with V32S, I48M, A68V, L70M, R100A
VL: B1 VL with N96A

binding result [1]: binds
B11: 61285 (IgG) (antibody, V domains shown)
VH: B1 VH with V32S, I48M, A68V, L70M, R100D, T102H
VL: B1 VL with N96S

binding result [6]: binds
B12: 60183 (Fab) (Fab, V domains shown)
VH: B1 VH with V32T, I48M, A68V, L70M, R100K
VL: B1 VL
notes: also called ADI-60183; clone 60183 Fab

binding result [1]: binds
B13: 61275 (IgG) (antibody, V domains shown)
VH: B1 VH with V32S, I48M, A68V, L70M, R100A
VL: B1 VL with N96A

binding result [6]: binds
B14: 61273 (Fab) (Fab, V domains shown)
VH: B1 VH with V32T, I48M, A68V, L70M, R100K
VL: B1 VL with L38I
notes: also called ADI-61273; clone 61273 Fab

EC50 (Rat P2 peptide [11]): 1.78 nM
Kd [9]: 70 nM
EC50 [12]: 0.34 nM
EC50 (NP2 (Rabbit) [13]): 0.67 nM
Kd [10]: 23 nM
B15: Fab of antibody clone 60143 (ADI-60143 Fab) (Fab, V domains shown)
VH: B1 VH with V32T, R100K
VL: B1 VL
notes: The crystal model holds chain H residues 1-127 and 134-214 and chain L residues 1-213; not shown: The papain cleavage limit is not stat

binding result [5]: binds
B16: 61285 (Fab) (Fab, V domains shown)
VH: B1 VH with V32S, I48M, A68V, L70M, R100D, T102H
VL: B1 VL with N96S

binding result [3]: binds
B17: 60183 (IgG) (antibody, V domains shown)
VH: B1 VH with V32T, I48M, A68V, L70M, R100K
VL: B1 VL
notes: also called ADI-60183; clone 60183 IgG

binding result [14]: binds
B18: ADI-61283 (IgG) (antibody, V domains shown)
VH: B1 VH with V32A, I48M, A68V, L70M, R100D, T102Y
VL: B1 VL with L59K, N96S

binding result [3]: binds
B19: 61255 (IgG) (antibody, V domains shown)
VH: B1 VH with V32Y, R100D, P101A
VL: B1 VL with I35H, S48P, N96A
notes: also called clone 61255 IgG

EC50 [7]: 0.08 nM
EC50 (Rat P2 peptide [15]): 0.094 nM
EC50 [16]: 7.25 nM
EC50 (Rat P2 peptide extended): 139 nM
EC50 (Ext NP2 (Rabbit)): 5.97 nM
EC50 (NP2 (Rabbit) [17]): 0.082 nM
EC50 [18]: 0.11 nM
B20: antibody clone 60143 (full length ADI-60143 IgG) (antibody, V domains shown)
VH: B1 VH with V32T, R100K
VL: B1 VL
